In data set [1] the target is bdSUMO D67K-MBP fusion protein.
Data set [2] concerns the target bdSUMO Mut10-MBP fusion protein.
The target of data set [3] is bdSUMO Mut11-MBP fusion protein.
The target of data set [4] is bdSUMO Mut12-MBP fusion protein.
The target in data set [5] is bdSUMO Mut13-MBP fusion protein.
For data set [6], the target named is bdSUMO Mut14-MBP fusion protein.
The target of data set [7] is bdSUMO Mut15-MBP fusion protein.
Data set [8] concerns the target bdSUMO Mut8-MBP fusion protein.
The target of data set [9] is bdSUMO-MBP fusion protein.
Data set [10] has as its target bdSUMO^Mut1-MBP fusion protein.
The target of data set [11] is hsSUMO2-MBP fusion protein.
Data set [12] deals with hsSUMO2-MBP fusion protein with the bdSUMO^Mut1 exchanges.
Data set [13] concerns the target hsSUMO2-MBP fusion protein with the bdSUMO^Mut11 exchanges.
Data set [14] concerns the target scSUMO-MBP fusion protein.
The target of data set [15] is scSUMO-MBP fusion protein with the bdSUMO^Mut1 exchanges.
In data set [16] the target is scSUMO-MBP fusion protein with the bdSUMO^Mut11 exchanges.

B1: Ulp1 from S. cerevisiae (protein)
chain: LVPELNEKDDDQVQKALASRENTQLMNRDNIEITVRDFKTLAPRRWLNDTIIEFFMKYIEKSTPNTVAFNSFFYTNLSERGYQGVRRWMKRKKTQIDKLDKIFTPINLNQSHWALGIIDLKKKTIGYVDSLSNGPNAMSFAILTDLQKYVMEESKHTIGEDFDLIHLDCPQQPNGYDCGIYVCMNTLYGSADAPLDFDYKDAIRMRRFIAHLILTDALK
With B1, the “cleavage of the SUMO fusion protein” value in data set [1], in data set [2], in [3], in data set [4], in [5] and in data set [6] was “resistant” in each case. In addition, the “cleavage of the SUMO fusion protein” value is “resistant” in data set [7]; “resistant” in data set [8]; 100 % cleavage in data set [9]; “resistant” in data set [10]; below 25 % cleavage in data set [11]; 100 % cleavage in data set [14]. The “cleavage of SUMO-MBP fusion, 1 h at 25 °C (FIG. 14)” value in data set [12] was “allowed cleavage resistance against Ulp1, SUMOstar protease, hsSENP2 and bdSENP1”; in [13], “allowed cleavage resistance against Ulp1, SUMOstar protease, hsSENP2 and bdSENP1”; in data set [15] it was “allowed cleavage resistance against Ulp1, SUMOstar protease, hsSENP2 and bdSENP1”; in [16] it was “allowed cleavage resistance against Ulp1, SUMOstar protease, hsSENP2 and bdSENP1”. Further, the “protease concentration required to efficiently cleave 100 µM cognate substrate, 1 h at 0 °C” value in data set [14] is recorded as “Around 15-50 nM of these two proteases were required to efficiently cleave the cognate substrate”.

B2: bdSENP1^MutG (protein)
chain: PFVPLTDEDEDNVRHALGGRKSSETLSVHEASHIVITREILQCLNDKEWLNDEVINLYLELLKERELREPNKFLKCHFFNTFFYKKLINGGYDYKSVRRWTTVKLGYNLIDCDKIFVPIHKDVHWCLAVINIKEKKFQYLDSLGYMDMKALRILAKYLVDEVKDKSGKQIDVHAWKQEGVQNLPLQENGWDCGMFMLKYIDFYSRDMELVFGQKHMSYFRRRTAKEILDLKAG
For the protein B2, the cleavage of the SUMO fusion protein in data set [1] was below 75 % cleavage; in data set [2], 100 % cleavage; in data set [3], below 75 % cleavage; in [4] it was below 50 % cleavage; in [5] it was below 75 % cleavage; in data set [6], below 50 % cleavage. The cleavage of the SUMO fusion protein in data set [7] is below 75 % cleavage; in data set [8] it was below 25 % cleavage; in data set [9], below 50 % cleavage; in [10] it was 100 % cleavage; in data set [11], 100 % cleavage; in [14], below 25 % cleavage.

B3: bdSENP1^MutH (protein)
chain: PFVPLTDEDEDNVRHALGGRKPSETLSVHEASAIVITREILQCLNDKEWLNDEVINLYLELLKERELREPNKFLKCHFFNTFFYKKLINGYDYKSVREWTTMRKLGYNLIDCDKIFVPIHKDVHWCLAVINIKEKKFQYLDSLGYMDMKALRILAKYLVDEVKDKSGKQIDVHAWKQEGVQNLPLQENGWDCGMFMLKYIDFYSRDMELVFGQKHMSYFRRRTAKEILDLKAG
As for B3, the cleavage of the SUMO fusion protein was below 75 % cleavage in data set [1]; 100 % cleavage in [2]; 100 % cleavage in data set [3]; 100 % cleavage in [4]; 100 % cleavage in data set [5]; 100 % cleavage in data set [6]. Moreover, the cleavage of the SUMO fusion protein in data set [7] is 100 % cleavage; in data set [8], below 75 % cleavage; in data set [9], below 25 % cleavage; in [10], 100 % cleavage; in data set [11], “resistant”; in [14], “resistant”.

B4: bdSENP1^MutJ (protein)
chain: PFVPLTDEDEDNVRHALGGRKESETLSVHEASSIVITREILQCLNDKEWLNDEVINLYLELLKERELREPNKFLKCHFFNTFFYKKLINGGYDYKSVRSWTTTRKLGYNLIDCDKIFVPIHKDVHWCLAVINIKEKKFQYLDSLGYMDMKALRILAKYLVDEVKDKSGKQIDVHAWKQEGVQNLPLQENGWDCGMFMLKYIDFYSRDMELVFGQKHMSYFRRRTAKEILDLKAG
On to B4, for which the cleavage of the SUMO fusion protein in data set [1] was 100 % cleavage; in [2], 100 % cleavage; in [3], 100 % cleavage; in data set [4] it was below 50 % cleavage; in data set [5], 100 % cleavage; in data set [6], below 50 % cleavage. The cleavage of the SUMO fusion protein is 100 % cleavage in data set [7]; below 50 % cleavage in [8]; below 50 % cleavage in data set [9]; 100 % cleavage in data set [10]; below 50 % cleavage in data set [11]; below 25 % cleavage in data set [14].

B5: bdSENP1^MutK (protein)
chain: PFVPLTDEDEDNVRHALGGRKVSETLSVHEASQIVITREILQCLNDKEWLNDEVINLYLELLKERELREPNKFLKCHFFNTFFYKKLINGGYDYKSVRVWTTGRKLGYNLIDCDKIFVPIHKDVHWCLAVINIKEKKFQYLDSLGYMDMKALRILAKYLVDEVKDKSGKQIDVHAWKQEGVQNLPLQENGWDCGMFMLKYIDFYSRDMELVFGQKHMSYFRRRTAKEILDLKAG
For the protein B5, the cleavage of the SUMO fusion protein in data set [1], in [2], in data set [3], in data set [4], in [5] and in data set [6] was 100 % cleavage in each case. The cleavage of the SUMO fusion protein in data set [7] was 100 % cleavage; in data set [8] it was below 75 % cleavage; in [9] it was below 50 % cleavage; in [10] it was 100 % cleavage; in [11], “resistant”; in [14], “resistant”.

B6: bdSENP1 from B. distachyon (protein)
chain: PFVPLTDEDEDNVRHALGGRKRSETLSVHEASNIVITREILQCLNDKEWLNDEVINLYLELLKERELREPNKFLKCHFFNTFFYKKLINGGYDYKSVRRWTTKRKLGYNLIDCDKIFVPIHKDVHWCLAVINIKEKKFQYLDSLGYMDMKALRILAKYLVDEVKDKSGKQIDVHAWKQEGVQNLPLQENGWDCGMFMLKYIDFYSRDMELVFGQKHMSYFRRRTAKEILDLKAG
Take B6: the cleavage of the SUMO fusion protein is below 25 % cleavage in data set [1]; below 25 % cleavage in data set [2]; below 25 % cleavage in data set [3]; below 25 % cleavage in data set [4]; below 50 % cleavage in [5]; below 25 % cleavage in data set [6]. The cleavage of the SUMO fusion protein in data set [7] was below 25 % cleavage; in data set [8], below 25 % cleavage; in data set [9], 100 % cleavage; in data set [10], below 25 % cleavage; in data set [11] it was below 50 % cleavage; in data set [14] it was below 50 % cleavage. Besides, the “protease concentration required to efficiently cleave 100 µM cognate substrate, 1 h at 0 °C” value in data set [9] is listed as “Around 15-50 nM of these two proteases were required to efficiently cleave the cognate substrate”. The “cleavage of SUMO-MBP fusion, 1 h at 25 °C (FIG. 14)” value was “allowed cleavage resistance against Ulp1, SUMOstar protease, hsSENP2 and bdSENP1” in data set [12]; “allowed cleavage resistance against Ulp1, SUMOstar protease, hsSENP2 and bdSENP1” in data set [13]; “allowed cleavage resistance against Ulp1, SUMOstar protease, hsSENP2 and bdSENP1” in data set [15]; “allowed cleavage resistance against Ulp1, SUMOstar protease, hsSENP2 and bdSENP1” in data set [16].

B7: bdSENP1^Muti (protein)
chain: PFVPLTDEDEDNVRHALGGRKKSETLSVHEASHIVITREILQCLNDKEWLNDEVINLYLELLKERELREPNKFLKCHFFNTFFYKKLINGGYDYKSVREWTTRRKLGYNLIDCDKIFVPIHKDVHWCLAVINIKEKKFQYLDSLGYMDMKALRILAKYLVDEVKDKSGKQIDVHAWKQEGVQNLPLQENGWDCGMFMLKYIDFYSRDMELVFGQKHMSYFRRRTAKEILDLKAG
With B7, the cleavage of the SUMO fusion protein in data set [1] is below 25 % cleavage; in data set [2], below 50 % cleavage; in data set [3] it was below 50 % cleavage; in [4], below 50 % cleavage; in [5] it was below 75 % cleavage; in data set [6], below 50 % cleavage. In addition, the cleavage of the SUMO fusion protein in data set [7] is below 50 % cleavage; in data set [8], below 25 % cleavage; in data set [9], below 25 % cleavage; in data set [10], 100 % cleavage; in [11], “resistant”; in data set [14], “resistant”.
